Assay results taken from patent US20250353908A1 (ARCELLX, published 2025).

T1: CS1-Fc (human, UniProt Q9NQ25 23-226)
T1 construct: also called recombinant human CS1-Fc; CS1-Fc polypeptide; not shown: Fc portion of CS1-Fc
T1 sequence: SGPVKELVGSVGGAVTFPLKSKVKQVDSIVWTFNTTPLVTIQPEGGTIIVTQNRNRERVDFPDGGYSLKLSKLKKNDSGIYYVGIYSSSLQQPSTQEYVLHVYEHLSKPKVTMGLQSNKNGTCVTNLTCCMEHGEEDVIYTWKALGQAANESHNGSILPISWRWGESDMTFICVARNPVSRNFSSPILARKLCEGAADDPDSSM


Assays:
CS1-Fc [1] = molecular target: T1, CS1-Fc; test: phage ELISA, CS1-Fc captured on anti-human IgG1-Fc, anti-M13-HRP, A450 target / A450 IgG1-Fc
Description: To identify new CS1-specific D domains, a D domain phage library described in Intl. Appl. Pub. No. WO 2016164305 and U.S. Pat. No. 10,662,248 was screened with a CS1-Fc polypeptide following standard protocols. Individual colonies containing phagemid from the CS1 panning output were picked and phage were rescued. To assay target binding by ELISA, 96-well plates were coated with anti-human IgG1-Fc antibody followed by incubation with CS1-Fc or IgG1-Fc. Rescued phage diluted in ELISA blocking buffer was then added to each well. Binding was detected using an HRP-conjugated anti-M13 antibody and the ELISA ratio for each DD sequence was determined as the absorbance at 450 nm for target (i.e., CS1-Fc) divided by that for IgG1-Fc averaged across all screened wells containing that clone.

CS1-Fc [2] = molecular target: T1, CS1-Fc; test: SPR (Biacore), adapter protein DD-GS linker-Q26, CS1-Fc target
Source text: One or more of the above discussed methods were used to identify the SEQ ID NO: 41-47, 49-61, 91-93 and 96-106 variant CS1 specific D domains. […] In addition to binding human CS1, the CS1DD03, CSDD006 and CS1DD007 D domains are cross-reactive with cyno/rhesus CS1.

Row | ELISA score (ratio of phage binding to CS1-Fc vs IgG-Fc) (CS1-Fc [1]) [ratio] | Kd (CS1-Fc [2]) [µM] | Binder
1 | 18.8 | – | CS1DD023 (designed binder) MGSWVEFYDRLEAIWQRLEALGGSEAELAAFEKEIAAFESELQAYKGKGNPEVEKLRRHAAGIRMRLQAYRHN
2 | 6.03 | – | SEQ ID NO 86 (designed binder) MGSWIEFQTRLEAIYQRLDALGGSEAELAAFEKEIAAFESELQAYKGKGNPEVETLRWHAAGIRQYLQAYRHN
3 | 16.6 | – | SEQ ID NO 76 (designed binder) MGSWEEFQNRLGAIWDRLEALGGSEAELAAFEKEIAAFESELQAYKGKGNPEVESLRWHAAGIRTRLQAYRHN
4 | 13.5 | – | SEQ ID NO 88 (designed binder) MGSWEEFYVRLDAIWERLEALGGSEAELAAFEKEIAAFESELQAYKGKGNPEVEGLRWHAAGIRERLQAYRHN
5 | 13.5 | – | SEQ ID NO 62 (designed binder) MGSWHFFKARLAYIKQGLEALGGSEAELALFEEFIAEFESDLQQYKGKGNPEVEALRKEAAAIRDELQAYRHN
6 | 18.6 | – | SEQ ID NO 85 (designed binder) MGSWNEFNERLGAINHRLRALGGSEAELAAFEKEIAAFESELQAYKGKGNPEVEVLREGAAWIRAELQAYRHN
7 | – | 0.038 | CS1DD006-P26(Q26) Adapter (designed binder, Monovalent Adapter: CS1DD006 D domain, GS linker, AFP p26 (Q26); The SPR sentence names only the format DD-GS linker-Q26; also called monovalent CS1DD006-P26(Q26); CS1DD006 adapter protein of the format DD-GS linker-Q26) MGSWAEFFTRLDAIWERLEGLGGSEAELAAFEKEIAAFESELQAYKGKGYPEVETLKFHAAGIRQKLQAYRHNGGGGDGGGGSGGGGSGQESQALAKRSCGLFQKLGEYYLQNAFLVAYTKKAPQLTSSELMAITRKMAATAATCCQLSEDKLLACGEGAADIIIGHLCIRHEMTPVNPGVGQCCTSSYANRRPCFSSLVVDETYVPPAFSDDKFIFHKDLCQAQGVALQTMKQEFLINLVKQKPQITEEQLEAVIADFSGLLEKCCQGQEQEVCFAEEGQKLISKTRAALGV
8 | – | 0.04 | CS1DD018 adapter protein of the format DD-GS linker-Q26 (designed binder) MGSWDEFNQRLGAFEERLQALGGSEAELAAFEKEIAAFESELQAYKGKGNPEVEFLRWYADGIRWELQAYRHNGGGGDGGGGSGGGGSGQESQALAKRSCGLFQKLGEYYLQNAFLVAYTKKAPQLTSSELMAITRKMAATAATCCQLSEDKLLACGEGAADIIIGHLCIRHEMTPVNPGVGQCCTSSYANRRPCFSSLVVDETYVPPAFSDDKFIFHKDLCQAQGVALQTMKQEFLINLVKQKPQITEEQLEAVIADFSGLLEKCCQGQEQEVCFAEEGQKLISKTRAALGV
9 | – | 0.018 | CS1DD020-P26(Q26) Adapter (designed binder, Monovalent Adapter: CS1DD020 D domain, GS linker, AFP p26 (Q26); The SPR sentence names only the format DD-GS linker-Q26; also called monovalent CS1DD020-P26(Q26); C1DD020 adapter protein of the format DD-GS linker-Q26) MGSWDEFNQRLGAIEERLQALGGSEAELAALEKEIAAFESELQAYKGKGNPEVEFLRWYADGIRWELQAYRHNGGGGDGGGGSGGGGSGQESQALAKRSCGLFQKLGEYYLQNAFLVAYTKKAPQLTSSELMAITRKMAATAATCCQLSEDKLLACGEGAADIIIGHLCIRHEMTPVNPGVGQCCTSSYANRRPCFSSLVVDETYVPPAFSDDKFIFHKDLCQAQGVALQTMKQEFLINLVKQKPQITEEQLEAVIADFSGLLEKCCQGQEQEVCFAEEGQKLISKTRAALGV
10 | 8.75 | – | SEQ ID NO 72 (designed binder) MGSWYEFWHRLTAIEQRLWALGGSEAELAAFEKEIAAFESELQAYKGKGNPEVEDLRSYAAEIRWRLQAYRHN
11 | 13.1 | – | SEQ ID NO 68 (designed binder) MGSWYEFWTRLTAIQMRLDALGGSEAELAAFEKEIAAFESELQAYKGKGNPEVEDLRAFAAQIRTHLQAYRHN
12 | 16 | – | SEQ ID NO 75 (designed binder) MGSWHEFWTRLTAIQMRLDALGGSEAELAAFEKEIAAFESELQAYKGKGNPEVEDLRAFAAQIRTHLQAYRHN
13 | – | 0.023 | CS1DD007 adapter protein of the format DD-GS linker-Q26 (designed binder) MGSWAEFFTRLDAIWERLEGLGGSEAELAALEKEIAAFESELQAYKGKGYPEVETLKFHAAGIRQKLQAYRHN
14 | 17.8 | – | SEQ ID NO 80 (designed binder) MGSWTEFWYRLSAIDLRLEALGGSEAELAAFEKEIAAFESELQAYKGKGNPEVEELRDYAAYIRAELQAYRHN
15 | 18.7 | – | SEQ ID NO 79 (designed binder) MGSWSEFWTRLAAIDMRLNALGGSEAELAAFEKEIAAFESELQAYKGKGNPEVEDLRDYAAQIREELQAYRHN
16 | 17.8 | – | SEQ ID NO 77 (designed binder) MGSWSEFWFRLLAIEQRLEALGGSEAELAAFEKEIAAFESELQAYKGKGNPEVEDLRDYAALIREMLQAYRHN

Row | ELISA score (ratio of phage binding to CS1-Fc vs IgG-Fc) (CS1-Fc [1]) [ratio] | Kd (CS1-Fc [2]) [µM] | Binder
17 | 10.5 | – | SEQ ID NO 70 (designed binder) MGSWMEFWHRLTAIDSRLEALGGSEAELAAFEKEIAAFESELQAYKGKGNPEVEDLRQYAASIRKSLQAYRHN
18 | 14 | – | SEQ ID NO 71 (designed binder) MGSWSEFWHRLSAIDARLEALGGSEAELAAFEKEIAAFESELQAYKGKGNPEVEDLRAYAAMIRNVLQAYRHN
19 | 18.3 | – | SEQ ID NO 74 (designed binder) MGSWSEFWMRLTAIDMRLAALGGSEAELAAFEKEIAAFESELQAYKGKGNPEVEELRDYAAVIRESLQAYRHN
20 | 16.3 | – | SEQ ID NO 82 (designed binder) MGSWSEFWNRLIAIDYRLLALGGSEAELAAFEKEIAAFESELQAYKGKGNPEVEELRDYAAHIRWNLQAYRHN
21 | 18 | – | SEQ ID NO 66 (designed binder) MGSWAEFWSRLSAIDERLGALGGSEAELAAFEKEIAAFESELQAYKGKGNPEVEELREYAAEIRRVLQAYRHN
22 | 13.8 | – | SEQ ID NO 81 (designed binder) MGSWSEFWIRLAAIELRLSALGGSEAELAAFEKEIAAFESELQAYKGKGNPEVEELRDYAAIIRRELQAYRHN
23 | 13.4 | – | SEQ ID NO 83 (designed binder) MGSWTEFWARLTAIDLRLIALGGSEAELAAFEKEIAAFESELQAYKGKGNPEVEELRDYAAFIRANLQAYRHN
24 | 18.7 | – | SEQ ID NO 73 (designed binder) MGSWSEFWHRLSAIDHRLGALGGSEAELAAFEKEIAAFESELQAYKGKGNPEVEELRAYAAEIRRNLQAYRHN
25 | 17.7 | – | SEQ ID NO 78 (designed binder) MGSWAEFWFRLAAIQMRLYALGGSEAELAAFEKEIAAFESELQAYKGKGNPEVEDLRDYAAHIRQELQAYRHN
26 | 16.9 | – | SEQ ID NO 69 (designed binder) MGSWYEFWSRLSAIHVRLEALGGSEAELAAFEKEIAAFESELQAYKGKGNPEVEDLRAYAAFIRSELQAYRHN
27 | 15.7 | – | SEQ ID NO 65 (designed binder) MGSWVEFEWRLYAIAGRLEALGGSEAELAAFEKEIAAFESELQAYKGKGNPEVEYLRQGAARIRATLQAYRHN
28 | 19.2 | – | CS1DD008 (designed binder) MGSWDEFNQRLGAIEERLQALGGSEAELAAFEKEIAAFESELQAYKGKGNPEVEFLRWYAAGIRWELQAYRHN
29 | 14.7 | – | SEQ ID NO 87 (designed binder) MGSWTEFHNRLWAIYDRLDALGGSEAELAAFEKEIAAFESELQAYKGKGNPEVETLRHHAAGIRRSLQAYRHN
30 | 19.6 | – | SEQ ID NO 89 (designed binder) MGSWSEFNSRLDAIFDRLFALGGSEAELAAFEKEIAAFESELQAYKGKGNPEVEELRSHAANIRASLQAYRHN
31 | 16.3 | – | SEQ ID NO 90 (designed binder) MGSWSEFWIRLDAIRERLWALGGSEAELAAFEKEIAAFESELQAYKGKGNPEVEELRYFAANIRQQLQAYRHN
32 | 16.3 | – | SEQ ID NO 84 (designed binder) MGSWIEFGWRLQAIEERLRALGGSEAELAAFEKEIAAFESELQAYKGKGNPEVEVLREWAAEIRWQLQAYRHN
